Measurements reported in US6288042, “Anti-viral guanosine-rich tetrad forming oligonucleotides” (Aronex Pharmaceuticals, Inc.).

Columns and labels:
[1] = target: T1, HIV-1 integrase wild-type (IN1-288) (Human immunodeficiency virus 1, UniProt P04585 P04585:1148-1435); assay: inhibition; 3'-processing; other column (strand transfer) 0.870; Table B-7 gives >0.50; only modest inhibition of U5 DNA binding at 500 nM (FIG. 25); conditions: G4
HIV-1 gp120 = HIV-1 gp120 (Human immunodeficiency virus 1, UniProt P04578 P04578:33-511); assay: competition; PT oligonucleotide inhibits V3 loop Mab binding to immobilized gp120; conditions: tags: immobilized
FIV integrase = FIV integrase (Feline immunodeficiency virus, UniProt P16088 P16088:844-1124); assay: inhibition; 3'-processing; conditions: G4
SIV integrase = target: T2, SIV integrase (Simian immunodeficiency virus, UniProt P05896 P05896:1156-1448); assay: inhibition; 3'-processing; conditions: G4
T2 sequence: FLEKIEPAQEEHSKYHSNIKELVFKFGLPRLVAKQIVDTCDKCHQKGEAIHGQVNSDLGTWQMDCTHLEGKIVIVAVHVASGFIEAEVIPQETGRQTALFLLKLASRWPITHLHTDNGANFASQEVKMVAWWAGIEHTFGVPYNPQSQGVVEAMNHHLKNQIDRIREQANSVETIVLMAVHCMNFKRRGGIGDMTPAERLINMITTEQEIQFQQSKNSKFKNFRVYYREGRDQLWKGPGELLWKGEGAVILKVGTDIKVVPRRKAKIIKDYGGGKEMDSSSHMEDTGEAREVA

[2] = target: HIV-1 nucleocapsid protein (Human immunodeficiency virus 1, UniProt P04591 P04591:378-432); assay: binds efficiently, data not shown; conditions: G4
[3] = target: T1, HIV-1 integrase wild-type (IN1-288); assay: inhibition; 3'-processing column as printed; strand transfer column 0.485; conditions: G4
[4] = target: T1, HIV-1 integrase wild-type (IN1-288); assay: inhibition; 3'-processing column as printed; strand transfer column 0.159; conditions: G4
[5] = target: T1, HIV-1 integrase wild-type (IN1-288); assay: inhibition; 3'-processing column as printed; strand transfer column 0.059; conditions: G4
[6] = target: T1, HIV-1 integrase wild-type (IN1-288); assay: inhibition; 3'-processing column as printed; strand transfer column 0.129; conditions: G4
[7] = target: T1, HIV-1 integrase wild-type (IN1-288); assay: inhibition; 3'-processing column as printed; strand transfer column 0.110; conditions: G4
[8] = target: T1, HIV-1 integrase wild-type (IN1-288); assay: inhibition; 3'-processing column as printed; strand transfer column 0.090; conditions: G4
[9] = target: FMLV reverse transcriptase (Friend murine leukemia virus, UniProt P26810 P26810:661-1331); assay: inhibition; reverse transcriptase activity in culture medium; conditions: protein: virion; tags: culture medium of chronically infected NIH3T3 cells

B1: T30659 thrombin binding aptamer pPT (structured_DNA)
DNA: GGTTGGTGTGGTTGG
modifications: PS at first and last linkage (Table B-7; Table C-1 says PT)
IC50 [1]: 750 nM

B2: 1174 (ssDNA)
DNA: GGGTGGGTGGGTGGGTGG
modifications: PS all linkages
binding result (HIV-1 gp120): binds

B3: I100-21 (ssDNA)
DNA: GTGGTGGGTGGGTGGGTGGTGGGTGGTGGTTGTGGGTGGGTGGTG
modifications: PS all linkages
binding result (HIV-1 gp120): binds

B4: T30177 (AR177) (structured_DNA)
DNA: GTGGTGGGTGGGTGGGT
modifications: PS at first and last linkage (pPT)
IC50 (FIV integrase): 175 nM | IC50 (SIV integrase): 420 nM | binding result [2]: binds

B5: T30675 (structured_DNA)
DNA: GTGGTGGGTGTGGTTGGT
modifications: PS at first and last linkage
IC50 [3]: 500 nM

B6: T30679 (structured_DNA)
DNA: GTGGTTGGTGGGTGGGT
modifications: PS at first and last linkage
IC50 [4]: 156 nM

B7: T30720 (structured_DNA)
DNA: GGGGTGGTGGGTGGGT
modifications: C-5 propynyl dU at capital T; PS at first and last linkage
IC50 [5]: 62 nM

B8: T30722 (structured_DNA)
DNA: GTGGGTGGTGGGTGGGT
modifications: C-5 propynyl dU at capital T; PS at first and last linkage
IC50 [6]: 134 nM

B9: T30075 (structured_DNA)
DNA: GTGGTGGGTGGGTGGGT
modifications: 3'-cholesterol via triglycyl linker
IC50 [7]: 95 nM

B10: T30570 (structured_DNA)
DNA: GTGGTGGGTGGGTGGGT
modifications: 5-bromo dU at 13; PS at first and last linkage [n positions 13 = modified dU]
IC50 [8]: 70 nM

B11: I100-12 (ssDNA)
DNA: GTTGGGGGTTGTTGGTGGGGTGGTGG
modifications: PS all linkages
IC50 [9]: < 500 nM
